Series [1] concerns the target T1, GST-SAP1(267-431), P28324.
T1 chain: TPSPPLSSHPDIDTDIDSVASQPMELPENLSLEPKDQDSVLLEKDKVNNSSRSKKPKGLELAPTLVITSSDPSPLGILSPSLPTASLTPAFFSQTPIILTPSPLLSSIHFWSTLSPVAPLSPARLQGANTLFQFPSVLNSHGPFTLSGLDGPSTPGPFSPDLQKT

The target of series [2] is GST-MAPKAP-K2(5-400), P49137.
Series [3] addresses GST-SAP2(221-417) [GST: P08515].
For the next series, the target named is T2, GST-cJun(1-194), P05412.
T2 chain: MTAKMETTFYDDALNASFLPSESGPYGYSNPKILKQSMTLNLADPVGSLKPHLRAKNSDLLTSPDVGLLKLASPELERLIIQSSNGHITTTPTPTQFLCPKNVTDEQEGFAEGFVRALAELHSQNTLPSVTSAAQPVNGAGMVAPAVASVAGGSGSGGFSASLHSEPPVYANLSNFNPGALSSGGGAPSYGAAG

The target of series [4] is GST-Elk1(307-428) [GST: P08515].
Series [5] deals with MAPKAP-K2 (substrate of Table 1, construct not stated), P49137.
A further series concerns the target T3, GST-ATF2(19-96), P15336.
T3 chain: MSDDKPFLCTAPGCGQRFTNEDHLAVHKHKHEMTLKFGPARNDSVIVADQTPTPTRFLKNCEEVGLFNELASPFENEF

The target in series [6] is GST-MAPKAP-K2(46-400), P49137.
Series [7] has as its target T4, MalE-Mpk2, the Xenopus homologue of SAPK2a, P47812.
T4 chain: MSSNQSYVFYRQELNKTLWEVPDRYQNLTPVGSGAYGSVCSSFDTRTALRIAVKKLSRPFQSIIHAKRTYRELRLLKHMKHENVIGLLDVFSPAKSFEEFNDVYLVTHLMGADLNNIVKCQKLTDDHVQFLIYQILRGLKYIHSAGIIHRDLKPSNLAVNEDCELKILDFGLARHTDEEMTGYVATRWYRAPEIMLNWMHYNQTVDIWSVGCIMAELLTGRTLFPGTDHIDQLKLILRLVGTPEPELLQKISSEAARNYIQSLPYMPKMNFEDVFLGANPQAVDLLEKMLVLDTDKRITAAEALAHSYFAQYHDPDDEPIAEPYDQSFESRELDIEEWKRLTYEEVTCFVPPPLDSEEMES

The target in a further series is T5, rat GST-SAPK3, Q63538.
T5 chain: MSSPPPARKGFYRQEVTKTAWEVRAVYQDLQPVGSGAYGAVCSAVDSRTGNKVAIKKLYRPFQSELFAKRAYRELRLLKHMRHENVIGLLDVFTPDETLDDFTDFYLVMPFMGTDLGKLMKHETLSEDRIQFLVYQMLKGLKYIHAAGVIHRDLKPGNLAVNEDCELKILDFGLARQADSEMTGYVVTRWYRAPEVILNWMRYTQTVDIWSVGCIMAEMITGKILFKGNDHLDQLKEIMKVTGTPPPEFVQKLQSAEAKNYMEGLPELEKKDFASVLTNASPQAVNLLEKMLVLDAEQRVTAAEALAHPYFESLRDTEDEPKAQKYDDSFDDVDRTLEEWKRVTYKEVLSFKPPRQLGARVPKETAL

In a further series the target is T6, human GST-SAPK4.
T6 chain: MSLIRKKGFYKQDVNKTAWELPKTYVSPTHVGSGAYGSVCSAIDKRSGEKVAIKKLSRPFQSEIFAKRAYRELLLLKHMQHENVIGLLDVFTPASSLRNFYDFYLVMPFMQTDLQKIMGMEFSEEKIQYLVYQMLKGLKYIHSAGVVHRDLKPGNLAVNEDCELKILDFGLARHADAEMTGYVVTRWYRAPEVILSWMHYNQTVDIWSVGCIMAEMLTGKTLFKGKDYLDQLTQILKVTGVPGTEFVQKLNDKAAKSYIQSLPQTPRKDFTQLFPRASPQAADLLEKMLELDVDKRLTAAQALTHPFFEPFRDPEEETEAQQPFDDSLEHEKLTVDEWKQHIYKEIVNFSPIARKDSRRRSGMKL

Sequence of GST-MAPKAP-K3, Q16644 (Q16644 whole entry, looked up): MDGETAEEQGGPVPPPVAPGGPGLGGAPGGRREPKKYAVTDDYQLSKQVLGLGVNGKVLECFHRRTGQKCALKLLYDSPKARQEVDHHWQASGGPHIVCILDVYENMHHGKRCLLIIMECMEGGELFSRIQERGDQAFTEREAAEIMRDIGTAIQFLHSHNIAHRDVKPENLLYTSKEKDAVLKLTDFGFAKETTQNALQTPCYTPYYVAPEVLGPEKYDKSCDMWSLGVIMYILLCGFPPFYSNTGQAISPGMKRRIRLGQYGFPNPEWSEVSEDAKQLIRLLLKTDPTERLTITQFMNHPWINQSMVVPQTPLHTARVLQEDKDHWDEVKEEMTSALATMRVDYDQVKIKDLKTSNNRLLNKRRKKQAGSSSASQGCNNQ
Sequence of MAPKAP-K2 (substrate of Table 1, construct not stated), P49137 (P49137 46-400): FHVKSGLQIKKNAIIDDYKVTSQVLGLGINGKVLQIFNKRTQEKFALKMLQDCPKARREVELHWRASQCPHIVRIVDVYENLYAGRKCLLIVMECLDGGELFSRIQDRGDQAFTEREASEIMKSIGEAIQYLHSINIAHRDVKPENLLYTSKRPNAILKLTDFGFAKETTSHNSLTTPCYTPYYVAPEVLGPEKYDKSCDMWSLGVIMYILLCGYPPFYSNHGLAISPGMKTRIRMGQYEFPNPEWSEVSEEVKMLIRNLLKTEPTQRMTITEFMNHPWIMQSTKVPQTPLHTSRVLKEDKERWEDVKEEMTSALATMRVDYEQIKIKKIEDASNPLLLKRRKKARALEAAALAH
Sequence of GST-MAPKAP-K2(46-400), P49137 (P49137 46-400): as above
Sequence of GST-MAPKAP-K2(5-400), P49137 (P49137 5-400): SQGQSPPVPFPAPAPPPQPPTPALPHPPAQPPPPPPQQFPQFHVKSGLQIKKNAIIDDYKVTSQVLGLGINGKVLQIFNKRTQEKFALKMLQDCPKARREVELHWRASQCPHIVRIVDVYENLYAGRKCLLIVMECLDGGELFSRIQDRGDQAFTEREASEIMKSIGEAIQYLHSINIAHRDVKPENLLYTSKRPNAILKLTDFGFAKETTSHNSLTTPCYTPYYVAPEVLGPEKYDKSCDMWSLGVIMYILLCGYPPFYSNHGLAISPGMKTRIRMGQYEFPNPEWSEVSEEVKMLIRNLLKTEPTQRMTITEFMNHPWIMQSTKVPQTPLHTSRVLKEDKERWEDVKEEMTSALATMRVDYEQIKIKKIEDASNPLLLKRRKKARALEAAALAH

B1: human GST-SAPK4 (protein)
chain: T6 chain
As for B1, the rate of phosphorylation of substrate (1 µM) relative to MBP (% of rate with MBP) in [1] worked out at 62; with GST-MAPKAP-K3, Q16644, 18; in series [3] it was 8; with GST-cJun(1-194), P05412, 6; in [4], 175; in [5], 28. Also, the “activation of MAPKAP-K3 (initial rate and half-time for maximal activation)” value with GST-MAPKAP-K3, Q16644 is given as 20 times slower. For the same protein, in series [2], the “activation of MAPKAP-K2 (initial rate and half-time for maximal activation)” value is recorded as 20 times slower.

B2: rat GST-SAPK3 (protein)
chain: T5 chain
As for B2, the rate of phosphorylation of substrate (1 µM) relative to MBP (relative to MBP (=100)) worked out at 108 in series [1]; 20 in series [3]; 107 with GST-ATF2(19-96), P15336; 2 with GST-cJun(1-194), P05412; 181 in series [4]. In the series with GST-MAPKAP-K3, Q16644, the “activation of MAPKAP-K3 (initial rate and half time for maximal activation)” value stood at 20 times slower. In addition, the rate of phosphorylation of substrate (1 µM) relative to MBP (% of rate with MBP) with GST-MAPKAP-K3, Q16644 was 20; in [5], 25. The “phosphorylation sites on ATF2 (32P, mutants, phosphoamino acid analysis)” value with GST-ATF2(19-96), P15336 is “SAPK2 and SAPK3 phosphorylate ATF2 at Thr69 and Thr-71, and that only SAPK3 phosphorylates Ser-90”. Besides, in series [6], the “activation of MAPKAP-K2 (initial rate and half time for maximal activation)” value is 20 times slower.

B3: human GST-SAPK2b (protein)
chain: MSGPRAGFYRQELNKTVWEVPQRLQGLRPVGSGAYGSVCSAYDARLRQKVAVKKLSRPFQSLIHARRTYRELRLLKHLKHENVIGLLDVFTPATSIEDFSEVYLVTTLMGADLNNIVKCQALSDEHVQFLVYQLLRGLKYIHSAGIIHRDLKPSNVAVNEDCELRILDFGLARQADEEMTGYVATRWYRAPEIMLNWMHYNQTVDIWSVGCIMAELLQGKALFPGSDYIDQLKRIMEVVGTPSPEVLAKISSEHARTYIQSLPPMPQKDLSSIFRGANPLAIDLLGRMLVLDSDQRVSAAEALAHAYFSQYHDPEDEPEAEPYDESVEAKERTLEEWKELTYQEVLSFKPPEPPKPPGSLEIEQ
In the case of B3, the rate of phosphorylation of substrate (1 µM) relative to MBP (% of rate with MBP) in series [1] was 27; with GST-MAPKAP-K3, Q16644, 66; in [3], 18; in the series with GST-ATF2(19-96), P15336, 62; in the series with GST-cJun(1-194), P05412 it was 7; in [4], 136. The rate of phosphorylation of substrate (1 µM) relative to MBP (% of rate with MBP) in series [5] is 83.

B4: MalE-Mpk2, the Xenopus homologue of SAPK2a (protein)
chain: T4 chain
Consider B4, for which the rate of phosphorylation of substrate (1 µM) relative to MBP (% of rate with MBP) in [1] was 25; in the series with GST-MAPKAP-K3, Q16644, 87; with GST-ATF2(19-96), P15336, 40; in the series with GST-cJun(1-194), P05412 it was 4; in series [4], 90; in series [5], 90. In addition, the rate of phosphorylation of substrate (1 µM) relative to MBP (relative to MBP (=100)) in [1] was determined as 55; in the series with GST-ATF2(19-96), P15336, 86; in the series with GST-cJun(1-194), P05412, 2; in series [4], 122. Also, the “phosphorylation sites on ATF2 (32P, mutants, phosphoamino acid analysis)” value in the series with GST-ATF2(19-96), P15336 was “SAPK2 and SAPK3 phosphorylate ATF2 at Thr69 and Thr-71, and that only SAPK3 phosphorylates Ser-90”.

B5: SKK3 purified from rabbit skeletal muscle (protein)
chain: MSQSKGKKRNPGLKIPKEAFEQPQTSSTPPRDLDSKACISIGNQNFEVKADDLEPIMELGRGAYGVVEKMRHVPSGQIMAVKRIRATVNSQEQKRLLMDLDISMRTVDCPFTVTFYGALFREGDVWICMELMDTSLDKFYKQVIDKGQTIPEDILGKIAVSIVKALEHLHSKLSVIHRDVKPSNVLINTLGQVKMCDFGISGYLVDSVAKTIDAGCKPYMAPERINPELNQKGYSVKSDIWSLGITMIELAILRFPYDSWGTPFQQLKQVVEEPSPQLPADKFSAEFVDFTSQCLKKNSKERPTYPELMQHPFFTVHESKATDVASFVKLILGD
With B5, the “activation of SAPK2 (MBP kinase activity) in vitro” value in series [7] was “The rate of activation of SAPK3 by SKK3 was similar to that of SAPK2”. The “activation of SAPK3 (MBP kinase activity) in vitro” value in the series with rat GST-SAPK3, Q63538 was “SAPK3 was activated in vitro by a highly purified preparation of SKK3 from skeletal muscle”. Moreover, the “32P phosphorylation, phosphoamino acid analysis” value with GST-SAPK4(D168A) was “the inactive SAPK4 mutant could only be phosphorylated on tyrosine and not on threonine”. In the series with human GST-SAPK4, the “activation of SAPK4 (MBP kinase activity) in vitro” value is listed as “SAPK4 was activated in vitro by a highly purified preparation of SKK3 from skeletal muscle”, the “phosphorylation stoichiometry at plateau” value is recorded as “reached a plateau at ˜1.6 mol/mol subunit” and the “rate of activation compared with SAPK2a” value was “occurred two- to three-fold more slowly than that of SAPK2a”.

The values above are taken from US6617117.
